Test results: patent publication US6277383A, “Ryegrass pollen allergen” (University of Melbourne, priority 1995, dated 2001)

Legend:
MAb 12.3 = assay: Antibody screening of lambda-gt 11 cDNA clones: binding of MAb 12.3
Procedure: Poly (A+) mRNA isolated from mature rye grass pollen by the phenol method ([…] and Michaels, (1984) Plant Mol. Biol. Rep., 2:24-28) was used to construct a cDNA library in the vector lambda-gt 11. The library was then screened with antibody probes to detect sequences expressing Group I proteins. E. coli […] transfected with 3×10^4 recombinant phages were plated and incubated at 42° C. for 3 h. The plates were overlaid with a dry 132 mm nitrocellulose (NC) filter previously soaked in 10 mm IPTG and transferred to 37° C. After incubation for 3 h the filters were carefully peeled off and incubated in 20 ml per filter of MTBS (10% w/v non-fat milk powder, 50 mm Tris-HCI, pH 7.6, 150 mM Nacl) for 30 min. at room temperature. A second set of NC filters was placed on phage plates and after incubating for 3 h were treated as above. Both sets of NC filters were tested for binding of MAb 40.1 to plaques by the method described in Huynh et al. (1985) In: DNA Cloning, a practical approach, Glover, D. M. (ed.) Vol. 1, pp. 49-78, IRL Press, Oxford, England. The antibody positive plaques were picked, purified, then replated and tested for binding to probes. The positive clones were plaque-purified and tested for IgE binding using sera from grass pollen-allergic subjects. Eighteen clones were selected as encoding proteins recognized by both Lol p I-specific MAbs and IgE antibodies (Table 1). The largest of the cDNA clones, 1.2kb in size, that expressed rye-grass allergenic protein was initially selected for further characterization and sequencing, and designated clone lambda-12R (FIG. 1a).

[1] = system: IgE antibodies of individual serum from 30 grass allergic patients; assay: Dot blot screening of recombinant allergens with 30 individual allergic sera; assay type: binding, human
Procedure: Two microliters of phage stocks of clones 12R, 13R and 19R and a non-recombinant lambda gt 11 were spotted onto a lawn of E. coli Y1090 induced with a nitrocellulose filter saturated with 10 mM IPTG. The protein blots were then probed with individual serum from 30 grass allergic patients. a=Lol p Ib.1, b=Lol p Ia, c=Lol p Ib.2 and d=non-recombinant lambda gt 11. [<]=individuals having higher level of IgE bound to Lol p Ib.2 than Lol p Ia and Lol p Ib.1. [1]=individuals having IgE specific to Lol p Ia. [2]=individuals having IgE specific to Lol p Ib.1 and Lol p Ib.2.
The relative allergenicity of Lol p Ia, Lol p Ib.1 and Lol p Ib.2 were tested using 30 individual allergic sera.

[2] = system: MAbs 3.2, 12.3, 21.3 and 40.1; assay: Recognition of cloned allergen 12R by MAbs (FIG. 1a); assay type: binding; conditions: MAbs 3.2, 12.3, 21.3, 40.1
Procedure: Poly (A+) mRNA isolated from mature rye grass pollen by the phenol method (Herrin and Michaels, (1984) Plant Mol. Biol. Rep., 2:24-28) was used to construct a cDNA library in the vector lambda-gt 11. The library was then screened with antibody probes to detect sequences expressing Group I proteins. E. coli Y1090 transfected with 3×10^4 recombinant phages were plated and incubated at 42° C. for 3 h. The plates were overlaid with a dry 132 mm nitrocellulose (NC) filter previously soaked in 10 mm IPTG and transferred to 37° C. After incubation for 3 h the filters were carefully peeled off and incubated in 20 ml per filter of MTBS (10% w/v non-fat milk powder, 50 mm Tris-HCI, pH 7.6, 150 mM Nacl) for 30 min. at room temperature. A second set of NC filters was placed on phage plates and after incubating for 3 h were treated as above. Both sets of NC filters were tested for binding of MAb 40.1 to plaques by the method described in Huynh et al. (1985) In: DNA Cloning, a practical approach, Glover, D. M. (ed.) Vol. 1, pp. 49-78, IRL Press, Oxford, England. The antibody positive plaques were picked, purified, then replated and tested for binding to probes. The positive clones were plaque-purified and tested for IgE binding using sera from grass pollen-allergic subjects. Eighteen clones were selected as encoding proteins recognized by both Lol p I-specific MAbs and IgE antibodies (Table 1). […]

[3] = system: specific IgE from pooled human allergic sera; assay: Immunological screening of clone 19R with sera; assay type: binding; conditions: plaque purified clone
Source text: Duplicate filters of the cDNA expression library in Example 1 were screened with specific IgE from pooled human allergic sera. The bound IgE was detected using ^125 I-labelled anti-human IgE (Kallestad Laboratories,Chaska, Minn.). The plaques that were antibody-positive on both of the duplicate filters were picked off, purified, and then replated and tested for binding to MAbs.

B1: Lol p Ib.1: protein encoded by the 12R clone (SEQ ID NO.: 2) (protein)
chain: MAVQKYTVALFLAVALVAGPAASYAADAGYTPAAAATPATPAATPAAAGGKATTDEQKLLEDVNAGFKAAVAAAANAPPADKFKIFEAAFSESSKGLLATSAAKAPGLIPKLDTAYDVAYKAAEGATPEAKYDAFVTALTEALRVIAGALEVHAVKPATEEVPAAKIPTGELQIVDKIDAAFKIAATAANAAPTNDKFTVFESAFNKALNECTGGAYETYKFIPSLEAAVKQAYAATVAAAPEVKYAVFEAALTKAITAMTQAQKAGKPAAAAATGAATVATGAATAAAGAATAAAGGYKA
Affinity of MAb 12.3 (footnote of Table 1, in words) (MAb 12.3): high affinity | Patients with IgE antibodies reactive to the recombinant allergen [1]: 80%

B2: Clone 12: 1.2 kb cDNA clone lambda-12R; its expressed protein is designated Lol p Ib.1 (protein)
chain: MAVQKYTVALFLAVALVAGPAASYAADAGYTPAAAATPATPAATPAAAGGKATTDEQKLLEDVNAGFKAAVAAAANAPPADKFKIFEAAFSESSKGLLATSAAKAPGLIPKLDTAYDVAYKAAEGATPEAKYDAFVTALTEALRVIAGALEVHAVKPATEEVPAAKIPTGELQIVDKIDAAFKIAATAANAAPTNDKFTVFESAFNKALNECTGGAYETYKFIPSLEAAVKQAYAATVAAAPEVKYAVFEAALTKAITAMTQAQKAGKPAAAAATGAATVATGAATAAAGAATAAAGGYKA
Recognition by all four MAbs used in this study [2]: recognized

B3: clone 19R: lambda gt 11 cDNA clone encoding Lol p Ib.2 (protein)
chain: MAVQKHTVALFLAVALVAGPAASYAADAGYAPATPATPAAPATAATPATPATPATPAAVPSGKATTEEQKLIEKINAGFKAAVAAAAVVPPADKYKTFVETFGTATNKAFVEGLASGYADQSKNQLTSKLDAALKLAYEAAQGATPEAKYDAYVATLTEALRVIAGTLEVHAVKPAAEEVKVGAIPAAEVQLIDKVDAAYRTAATAANAAPANDKFTVFENTFNNAIKVSLGAAYDSYKFIPTLVAAVKQAYAAKQATAPEVKYTVSETALKKAVTAMSEAEKEATPAAAATATPTPAAATATATPAAAYATATPAAATATATPAAATATPAAAGGYKV
Reaction with non-allergic sera [3]: not positive | Binding of specific IgE in sera of ryegrass sensitive patients ([3]; pooled allergic sera): bind specific IgE

B4: Lol p Ib.2: protein encoded by clone 19R (SEQ ID NO.: 4) (protein)
chain: MAVQKHTVALFLAVALVAGPAASYAADAGYAPATPATPAAPATAATPATPATPATPAAVPSGKATTEEQKLIEKINAGFKAAVAAAAVVPPADKYKTFVETFGTATNKAFVEGLASGYADQSKNQLTSKLDAALKLAYEAAQGATPEAKYDAYVATLTEALRVIAGTLEVHAVKPAAEEVKVGAIPAAEVQLIDKVDAAYRTAATAANAAPANDKFTVFENTFNNAIKVSLGAAYDSYKFIPTLVAAVKQAYAAKQATAPEVKYTVSETALKKAVTAMSEAEKEATPAAAATATPTPAAATATATPAAAYATATPAAATATATPAAATATPAAAGGYKV
Patients with IgE antibodies reactive to the recombinant allergen [1]: 80%
